Biological target: bovine submaxillary mucin (BSM) (bovine)
Test: ELISA on BSM-coated wells, 0-100 nM antibody; periodate-treated signal subtracted (periodate-sensitive STn binding curve)

B1: SIA01 (antibody, V domains shown)
VH: EVQLVQSGAEVKKPGASVKVSCKASGYTFTDHAIHWVRQAPGQGLEWMGYFSPGNDDIKYNEKFRGRVTMTADKSSSTAYMELRSLRSDDTAVYFCKRSLSTPYWGQGTLVTVSS
VL: DIVMTQSPDSLAVSLGERATINCKSSQSLLNRGNHKNYLTWYQQKPGQPPKLLIYWASTRESGVPDRFSGSGSGTDFTLTISSLQAEDVAVYYCQNDYTYPYTFGQGTKVEIK
B1 was tested, and the EC50 was 4.2 nM.

— patent US20200247902A1
